The data set “split reporter” deals with the molecule itself. The experiment in a line: split reporter.
The data set “crystal structure” deals with the molecule itself. The experiment in a line: crystal structure.

B1: CXE15 C14D fused to split YFP (enzyme, Arabidopsis thaliana, UniProt Q9FG13 1-329, looked up)
chain: MGSLGEEPQVAEDDMGLLQLLSNGTVLRSESIDLITQQIPFKNNQTVLFKDSIYHKPNNLHLRLYKPISASNRTALPVVVFFHGGGFCFGSRSWPHFHNFCLTLASSLNALVVSPDYRLAPEHRLPAAFEDAEAVLTWLWDQAVSDGVNHWFEDGTDVDFDRVFVVGDSSGGNIAHQLAVRFGSGSIELTPVRVRGYVLMGPFFGGEERTNSENGPSEALLSLDLLDKFWRLSLPNGATRDHHMANPFGPTSPTLESISLEPMLVIVGGSELLRDRAKEYAYKLKKMGGKRVDYIEFENKEHGFYSNYPSSEAAEQVLRIIGDFMNNLS
Regarding B1, in the data set “split reporter”, the “fold reduction of BiFC fluorescence against wild-type CXE15” value was above 2 fold.

B2: CXE15 E271Q mutant (enzyme, Arabidopsis thaliana, UniProt Q9FG13 1-329, looked up)
chain: MGSLGEEPQVAEDCMGLLQLLSNGTVLRSESIDLITQQIPFKNNQTVLFKDSIYHKPNNLHLRLYKPISASNRTALPVVVFFHGGGFCFGSRSWPHFHNFCLTLASSLNALVVSPDYRLAPEHRLPAAFEDAEAVLTWLWDQAVSDGVNHWFEDGTDVDFDRVFVVGDSSGGNIAHQLAVRFGSGSIELTPVRVRGYVLMGPFFGGEERTNSENGPSEALLSLDLLDKFWRLSLPNGATRDHHMANPFGPTSPTLESISLEPMLVIVGGSQLLRDRAKEYAYKLKKMGGKRVDYIEFENKEHGFYSNYPSSEAAEQVLRIIGDFMNNLS
modifications: disulphide bond between the two Cys14 residues in the crystal
Turning to B2, the binding result in the data set “crystal structure” is reported as “binds”.

Source of the values: article PMC12638876 (Nature Communications, 2025).
